Assay [1] has as its target T1, recombinant human DR3-human IgG1-Fc (soluble human DR3(EC)-hG1Fc) (human).
T1 construct: also called huDR3-huFc; hDR3(EC)-hG1Fc
The assay can be described thus: SPR (Biacore 3000), huDR3-huFc amine-coupled on CM5, Fab 12 to 0.375 nM, 1:1 Langmuir fit, 25 C; run 2. How it is done: (§1) Fab antibody fragments of the above mentioned antibodies were obtained following the Pierce Fab Preparation Kit (Thermo Scientific Pierce No. 44985). All of the following manipulations were carried out using a Biacore® 3000 (manufactured by GE Healthcare Bio-Sciences). Recombinant huDR3-huFc protein was immobilized on a CM5 sensor chip (manufactured by GE Healthcare Bio-Sciences) by an amine coupling chemistry.
(§2) In particular, the kinetic assay was carried out by immobilizing on the chip approximately 2000 resonance unit (RU) of recombinant protein, in order to achieve a medium protein immobilization level. Thereafter, the anti-DR3 antibody Fab fragments, diluted from 12 nM concentration in five steps, were allowed to run at a flow rate of 30 μL/min onto the chip for 120 seconds. The dissociation time was 300 seconds and the binding curves were measured at 25° C.
(§3) Regeneration was performed with glycine-HCl, pH 1.5, 60 seconds. The raw data were double referenced by subtraction of the signals from a reference flow cell without captured ligand and a buffer blank. The sensorgram corresponding to each concentration was obtained. The analysis was carried out using a 1:1 Langmuir fit model, using the analysis software attached to the apparatus, Biacore® 3000 Evaluation software (manufactured by Biacore), thereby calculating an association rate constant ka [1/Ms] and a dissociation rate constant kd [1/s] for the recombinant huDR3-huFc protein.

Assay [2] has as its target T1, recombinant human DR3-human IgG1-Fc …. Kind of assay: SPR, Fab on immobilised DR3-Fc, same as Example 5; n = 6. On the procedure:
as §1, §2, §3

The target is the same in assay [3]. The assay can be described thus: SPR (Biacore 3000), huDR3-huFc amine-coupled on CM5, Fab 12 to 0.375 nM, 1:1 Langmuir fit, 25 C; run 1. How it is done: as §1, §2, §3
Assay [4] shares this target. Kind of assay: SPR (Biacore 3000), huDR3-huFc on CM5, Fab as analyte; average KD, n = 2. On the procedure:
as §1, §2
(§4) Regeneration was performed with glycine-HCl, pH 1.5, 60 seconds. The raw data were double referenced by subtraction of the signals from a reference flow cell without captured ligand and a buffer blank. The sensorgram corresponding to each concentration was obtained. […]

For assay [5] the target is unchanged. Kind of assay: SPR, Fab on immobilised DR3-Fc. On the procedure:
as §1, §2, §3
Target sequence in this assay (chain, as listed by the source limits assumed): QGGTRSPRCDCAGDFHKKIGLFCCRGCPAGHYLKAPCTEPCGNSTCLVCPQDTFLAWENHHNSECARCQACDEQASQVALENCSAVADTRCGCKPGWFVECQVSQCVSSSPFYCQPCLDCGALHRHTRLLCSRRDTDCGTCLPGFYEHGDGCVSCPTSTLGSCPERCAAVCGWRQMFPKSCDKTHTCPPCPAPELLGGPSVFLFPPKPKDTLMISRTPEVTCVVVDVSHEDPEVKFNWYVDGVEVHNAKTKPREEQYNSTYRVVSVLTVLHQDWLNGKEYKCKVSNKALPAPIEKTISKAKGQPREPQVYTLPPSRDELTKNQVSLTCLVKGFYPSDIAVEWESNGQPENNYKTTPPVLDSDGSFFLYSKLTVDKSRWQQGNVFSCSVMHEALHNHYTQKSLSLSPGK

Assay [6] has the same target. The assay can be described thus: SPR, Fab on immobilised DR3-Fc, same as Example 5; n = 23. On the procedure:
as §1, §2, §4

The target is the same in assay [7]. Kind of assay: SPR, Fab on immobilised DR3-Fc, same as Example 5; n = 3. On the procedure: as §1, §2, §3
Assay [8] deals with T2, death domain-deleted human DR3 (hDR3ΔDD) on CHO-K1 cells (human, UniProt Q93038 25-345).
T2 construct: also called CHO/DR3; human DR3-expressing CHO cells
T2 sequence: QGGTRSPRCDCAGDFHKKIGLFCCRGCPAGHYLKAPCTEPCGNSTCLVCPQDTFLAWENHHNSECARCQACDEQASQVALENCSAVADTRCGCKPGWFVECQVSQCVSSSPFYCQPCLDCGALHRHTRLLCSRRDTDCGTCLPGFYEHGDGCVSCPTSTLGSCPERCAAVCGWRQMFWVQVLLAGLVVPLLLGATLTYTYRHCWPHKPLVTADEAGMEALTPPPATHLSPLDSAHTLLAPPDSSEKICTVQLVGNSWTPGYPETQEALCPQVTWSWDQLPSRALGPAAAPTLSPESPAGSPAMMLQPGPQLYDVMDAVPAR
Kind of assay: flow cytometry of hybridoma supernatant on human DR3-expressing CHO cells, anti-human IgG-PE. On the procedure: Supernatants of multiwell plates were screened by flow cytometric binding to human DR3-expressing CHO cells (hereinafter described as CHO/DR3, in case). Cells were incubated at 10,000/well in a 96-well round-bottom assay plate for 15 minutes at 4° C. with a neat supernatant of hybridoma. Cells were pelleted via centrifugation, and washed with 200 μL PBS/0.5% fetal calf serum. […] Cells were washed as described above, and resuspended in 200 μL PBS/0.5% fetal calf serum; >5000 events acquired on an LSR Fortessa flow cytometer (Beckton Dickinson). Results were analyzed using FlowJo (Treestar Inc.).

Positions count from the first letter of the chain named. Names and notes keep the numbering of the source.

B1: anti-DR3 monoclonal antibody 142A2 Fab fragment (Fab, V domains shown)
VH: QVQLQQSGPGLVKPSQTLSLTCAISGDSVSGYSAAWNWIRQSPSRGLEWLGRTYYRSKWYNDYAVSVKSRITINPDTSKNQFSLQLNSVTPEDTAVYYCARDYYGSESYYNGGYYYYGMDVWGQGTTVTVSS
VL: AIQLTQSPSSLSASVGDRVTITCRASPGISSALAWYQQKPGKAPKLLMYDASSLESGVPSRFSGSGSGTDFTLTISSLQPEDFATYYCQQFNDYPLTFGGGTKVEIK
notes: Fab made with the Pierce Fab Preparation Kit from antibody 142A2; also called parental 142A2
Take B1: the Kd in assay [1] was found to be 1.5 nM; in assay [2], 3.99 nM; in assay [3] it was 3.79 nM; in assay [4], 2.65 nM.

B2: 142A2-A51E/L54Q Fab (Fab, V domains shown)
VH: B1 VH
VL: B1 VL with A51E, L54Q
notes: Only the variable domains are written; also called A2-EQ
For B2, in assay [5], the “fold increase of binding affinity against parental 142A2” value (“fold increase of binding affinity” below) was around 1.9 fold. The Kd in assay [6] worked out at 2.13 nM.

B3: 142A2-G112R Fab (Fab, V domains shown)
VH: B1 VH with G112R
VL: B1 VL
notes: Only the variable domains are written
Take B3: the Kd in assay [7] stood at 3.19 nM.

B4: 142A2-G112R/L54Q Fab (Fab, V domains shown)
VH: B1 VH with G112R
VL: B1 VL with L54Q
notes: as for B3
With B4, in assay [7], the Kd came out at 2.37 nM.

B5: 142A2-G112R/A51E Fab (Fab, V domains shown)
VH: B1 VH with G112R
VL: B1 VL with A51E
notes: Only the variable domains are written; also called A2-ER
Consider B5, for which the “fold increase of binding affinity” value in assay [5] is around 2 fold. Also, in assay [2], the Kd came to 1.96 nM.

B6: 142A2-L54Q Fab (Fab, V domains shown)
VH: B1 VH
VL: B1 VL with L54Q
notes: Only the variable domains are written; also called A2-Q
In the case of B6, the “fold increase of binding affinity” value in assay [5] was around 1.2 fold. In assay [7], the dissociation constant Kd was 3.04 nM.

B7: 142A2-A51E Fab (Fab, V domains shown)
VH: B1 VH
VL: B1 VL with A51E
notes: Only the variable domains are written; also called A2-E
Regarding B7, the “fold increase of binding affinity” value in assay [5] is around 1.8 fold. The Kd in assay [2] was 2.2 nM.

B8: 142A2-G112R/A51E/L54Q Fab (Fab, V domains shown)
VH: B1 VH with G112R
VL: B1 VL with A51E, L54Q
notes: Only the variable domains are written; also called A2-EQR; 142A2-EQR
With B8, the “fold increase of binding affinity” value in assay [5] is around 2.2 fold. Also, the Kd in assay [7] worked out at 1.78 nM.

B9: anti-DR3 monoclonal antibody 142S38B Fab fragment (Fab, V domains shown)
VH: EVQLLESGGGLVQPGGSLRLSCAASGFTVSRYAMSWVRQAPGKGLEWVSAISDSGGRTYYADSVMGRFTISRDTSKNTLYLQMNSLRAEDTAVYFCAKEFGDYLDYWGQGTLVTVSS
VL: EIVLTQSPATLSLSPGERATLSCRASQSVSSYLAWYQQKPGQAPRLLIYDASNRATGIPARFSGSGSGTDFTLTISSLEPEDFAVYYCQQRSNWWTFGQGTKVEIK
notes: Fab made with the Pierce Fab Preparation Kit from antibody 142S38B; Human kappa light chain; Only the variable domains are written
As for B9, the Kd in assay [1] turned out to be 0.162 nM; in assay [3] it was 0.225 nM; in assay [4], 0.194 nM; in assay [7] it was 0.13 nM. Further, the koff in assay [1] is 5.46e-05 s⁻¹; in assay [3] it was 5.37e-05 s⁻¹. Further, the results for the kon in assay [1] and in assay [3] were 337000 M⁻¹ s⁻¹ and 239000 M⁻¹ s⁻¹, respectively.

B10: anti-DR3 monoclonal antibody 142S38B (hybridoma supernatant) (antibody, V domains shown)
VH: B9 VH
VL: B9 VL
notes: Human antibody from a KM mouse hybridoma, detected with anti-human IgG-PE; Kappa light chain
B10: the binding result in assay [8] is on record as “binds”.

The values are drawn from patent US20170190781A1 (Kyowa Kirin, published 2017).
